The text below walks through data of patent publication US20180162947A1 (UCB, published 2018).

B1: 969gH2gL4 (antibody, human IgG4 S228P, kappa, name in Kabat numbering, V domains shown)
VH: EVTLKESGPALVKPTQTLTLTCTFSGFSLTTYGMGVGWIRQPPGKALEWLANIWWDDDKYYNPSLKNRLTISKDTSKNQVVLTMTNMDPVDTATYYCARIGPIKYPTAPYRYFDFWGQGTMVTVSS
VL: DIQMTQSPSSLSASVGDRVTITCLASEDIYDNLAWYQKKPGKAPKLLIYYASSLQDGVPSRFSGSGSGTDYTLTISSLQPEDFATYYCLQDSEYPWTFGGGTKVEIKR
notes: Humanised IgG4 (S241P)/kappa; positions are Kabat; also called Ab969.g7
B2: 969gH1gL1 (antibody, human IgG4 S228P, kappa, name in Kabat numbering, V domains shown)
VH: B1 VH with V80A
VL: B1 VL with Y87F
notes: Humanised IgG4 (S241P)/kappa; positions are Kabat; also called Ab969.g1
B3: 969gH2gL8 (antibody, human IgG4 S228P, kappa, name in Kabat numbering, V domains shown)
VH: B1 VH
VL: B1 VL with K38Q, Y71F
notes: Humanised IgG4 (S241P)/kappa, no donor residues; position is Kabat; also called Ab969.g4
B4: 969gH2gL1 (antibody, human IgG4 S228P, kappa, name in Kabat numbering, V domains shown)
VH: B1 VH
VL: B1 VL with Y87F
notes: Humanised IgG4 (S241P)/kappa; positions are Kabat; also called Ab969.g6
B5: 969gH2gL7 SG (antibody, human IgG4 S228P, kappa, V domains shown)
VH: B1 VH
VL: B1 VL with K38Q, D56S
notes: Humanised IgG4 (S241P)/kappa; also called 969H2gL7(SG)

Substitutions are numbered along the chain they refer to. Numbers in names are those of the source.

T1 sequence (P07333 20-512 limits assumed): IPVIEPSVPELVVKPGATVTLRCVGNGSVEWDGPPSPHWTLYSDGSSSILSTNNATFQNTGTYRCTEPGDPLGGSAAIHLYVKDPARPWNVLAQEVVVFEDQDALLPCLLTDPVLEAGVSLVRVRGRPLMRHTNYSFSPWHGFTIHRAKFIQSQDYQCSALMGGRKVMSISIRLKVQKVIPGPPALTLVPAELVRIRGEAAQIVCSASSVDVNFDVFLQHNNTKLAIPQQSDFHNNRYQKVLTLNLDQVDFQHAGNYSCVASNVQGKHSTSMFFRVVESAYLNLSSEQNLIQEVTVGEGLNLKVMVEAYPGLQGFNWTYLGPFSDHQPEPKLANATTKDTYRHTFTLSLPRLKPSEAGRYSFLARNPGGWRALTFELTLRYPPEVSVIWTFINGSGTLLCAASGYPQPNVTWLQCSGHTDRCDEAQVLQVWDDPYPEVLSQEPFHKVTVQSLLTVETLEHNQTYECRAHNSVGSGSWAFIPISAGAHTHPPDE

The target of the first experiment is human CSF-1R on cells (THP-1 cells, transfected HEK293F cells, primary human monocytes) (human, UniProt P07333 20-972). Put plainly: cell-based or functional assay.
Chain of human CSF-1R on cells (THP-1 cells, transfected HEK293F cells, primary human monocytes) (P07333 20-972): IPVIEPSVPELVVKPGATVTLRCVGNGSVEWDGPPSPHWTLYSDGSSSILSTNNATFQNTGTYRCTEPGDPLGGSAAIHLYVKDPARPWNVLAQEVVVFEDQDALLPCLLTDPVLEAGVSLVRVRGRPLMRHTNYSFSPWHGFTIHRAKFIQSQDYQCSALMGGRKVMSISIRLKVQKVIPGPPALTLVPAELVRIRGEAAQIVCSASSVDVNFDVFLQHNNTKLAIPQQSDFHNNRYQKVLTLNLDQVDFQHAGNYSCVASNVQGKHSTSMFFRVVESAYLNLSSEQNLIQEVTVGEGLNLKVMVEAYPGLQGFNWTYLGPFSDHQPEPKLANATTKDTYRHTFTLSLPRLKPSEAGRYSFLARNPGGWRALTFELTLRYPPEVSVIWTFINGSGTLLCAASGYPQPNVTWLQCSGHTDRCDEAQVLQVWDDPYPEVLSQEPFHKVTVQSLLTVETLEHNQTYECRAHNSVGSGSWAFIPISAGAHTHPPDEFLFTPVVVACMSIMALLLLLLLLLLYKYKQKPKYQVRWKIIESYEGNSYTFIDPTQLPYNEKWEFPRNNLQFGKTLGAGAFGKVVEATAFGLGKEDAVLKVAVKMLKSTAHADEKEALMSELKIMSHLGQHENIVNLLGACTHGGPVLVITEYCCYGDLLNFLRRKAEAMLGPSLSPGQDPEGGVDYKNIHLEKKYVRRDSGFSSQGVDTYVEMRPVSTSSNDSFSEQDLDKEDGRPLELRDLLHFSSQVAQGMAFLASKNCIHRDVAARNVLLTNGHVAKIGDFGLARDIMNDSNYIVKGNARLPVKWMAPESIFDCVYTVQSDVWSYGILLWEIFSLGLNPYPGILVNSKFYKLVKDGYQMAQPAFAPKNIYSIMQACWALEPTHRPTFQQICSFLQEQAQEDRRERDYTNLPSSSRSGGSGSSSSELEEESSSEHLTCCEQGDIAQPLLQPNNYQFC
B1: the “IC50, MCP-1 inhibition assay, Donor 1” value was determined as 0.0463 µg/mL; the “IC50, MCP-1 inhibition assay, Donor 2” value worked out at 0.0061 µg/mL; the “IC50 ratio against chimeric 969.g0 (number in parentheses), Donor 1” value is 1.5 ratio; the “IC50 ratio against chimeric 969.g0 (number in parentheses), Donor 2” value came out at 1.1 ratio. The “Mean chimeric/graft IC50 ratio” value was determined as 1.3 ratio.

Another experiment addresses T1, recombinant human CSF-1R (form not stated) (human, UniProt P07333 20-512, limits assumed).
T1 construct: for the ELISA no species is stated; also called recombinant CSF-1R; recombinant CSF-1R protein
Put plainly: BIAcore, experiment 1 of 3. As for the experimental part: (§1) The assay format was capture of the anti-CSF-1R antibodies by immobilised anti-human IgG,F(ab′)₂, then a titration of hCSF-1R/Fc over the captured surface. BIA (Biomolecular Interaction Analysis) was performed using a BIAcore 3000 (GE Healthcare Bio-Sciences AB). All experiments were performed at 25° C. An AffiniPure F(ab′)₂ fragment goat anti-human IgG, F(ab′)₂ fragment specific (Jackson ImmunoResearch), was immobilised on a CM5 Sensor Chip (GE Healthcare Bio-Sciences AB) via amine coupling chemistry to a level of ˜5000 response units (RU). HBS-EP buffer (10 mM HEPES, pH 7.4, 0.15M NaCl, 3 mM EDTA, 0.005% Surfactant P20, GE Healthcare Bio-Sciences AB) was used as the running buffer with a flow rate of 10 μl/min.
(SPR reads the build-up and loss of mass on a sensor chip optically.)
Regarding B2, the Kd amounted to 3.2 pM, the koff worked out at 8.47e-06 s⁻¹ and the kon came out at 2.65e+06 M⁻¹ s⁻¹.
In the same order, the values of B1 are 3 pM, 7.73e-06 s⁻¹ and 2.57e+06 M⁻¹ s⁻¹.
Consider B3, for which the Kd came out at 2.5 pM, the dissociation rate constant (koff) stood at 5e-06 s⁻¹ and the kon is 1.99e+06 M⁻¹ s⁻¹.
Taken in the same sequence, the figures for B4 were 3.6 pM, 8.84e-06 s⁻¹ and 2.43e+06 M⁻¹ s⁻¹.

The target in the next experiment is T1, recombinant human CSF-1R (form not …). Put plainly: BIAcore, experiment 2 of 3. As for the experimental part:
as §1
In the case of B2, the Kd was determined as 2.4 pM, the koff was 6.04e-06 s⁻¹ and the kon was determined as 2.57e+06 M⁻¹ s⁻¹.
In the same order, the values of B1 are 3.6 pM, 9.41e-06 s⁻¹ and 2.6e+06 M⁻¹ s⁻¹.
Turning to B3, the dissociation constant Kd came to 3.4 pM, the koff was determined as 6.65e-06 s⁻¹ and the kon was 1.94e+06 M⁻¹ s⁻¹.
With B4, the Kd came to 3.7 pM, the off-rate constant (koff) is 8.95e-06 s⁻¹ and the on-rate (kon) was 2.44e+06 M⁻¹ s⁻¹.

The next experiment has the same target. Put plainly: BIAcore, experiment 3 of 3. The method, then: as §1
B2: the Kd is 3.9 pM, the koff turned out to be 9.88e-06 s⁻¹ and the kon came out at 2.51e+06 M⁻¹ s⁻¹.
Taken in the same sequence, the figures for B1 were 4.6 pM, 1.15e-05 s⁻¹ and 2.52e+06 M⁻¹ s⁻¹.
In the same order, the values of B3 are 2.5 pM, 5e-06 s⁻¹ and 1.97e+06 M⁻¹ s⁻¹.
B4: the Kd was determined as 2.6 pM, the koff was found to be 6.63e-06 s⁻¹ and the kon stood at 2.54e+06 M⁻¹ s⁻¹.

For a further experiment the target is unchanged. The experiment in a line: BIAcore, mean of 3 (fourth row, unlabelled). The method, then:
as §1
As for B2, the Kd is 3.2 pM, the koff came out at 8.13e-06 s⁻¹ and the kon was 2.58e+06 M⁻¹ s⁻¹.
In the same order, the values of B1 are 3.7 pM, 9.55e-06 s⁻¹ and 2.56e+06 M⁻¹ s⁻¹.
In the case of B3, the Kd was found to be 2.8 pM, the koff came out at 5.55e-06 s⁻¹ and the kon turned out to be 1.97e+06 M⁻¹ s⁻¹.
Taken in the same sequence, the figures for B4 were 3.3 pM, 8.14e-06 s⁻¹ and 2.47e+06 M⁻¹ s⁻¹.

For the next experiment the target is unchanged. The experiment in a line: BIAcore, DG/SG comparison, crude cell supernatant.
For the molecule B3, the equilibrium dissociation constant (Kd) came to 2.3 pM, the koff was 5e-06 s⁻¹ and the kon came out at 2.18e+06 M⁻¹ s⁻¹.
For B5, the Kd worked out at 2 pM, the koff stood at 5e-06 s⁻¹ and the on-rate constant (kon) stood at 2.54e+06 M⁻¹ s⁻¹.

For another experiment the target is unchanged. The experiment in a line: BIAcore, humanisation stage, crude cell supernatant.
As for B2, the Kd was at most 2.4 pM, the off-rate constant (koff) is at most 5e-06 s⁻¹ and the kon amounted to 2.04e+06 M⁻¹ s⁻¹.
In the same order, the values of B1 are 4.4 pM, 9.64e-06 s⁻¹ and 2.2e+06 M⁻¹ s⁻¹.
Taken in the same sequence, the figures for B3 were 4.1 pM, 5e-06 s⁻¹ and 1.23e+06 M⁻¹ s⁻¹.
In the same order, the values of B4 are 2.3 pM, 5.23e-06 s⁻¹ and 2.27e+06 M⁻¹ s⁻¹.

In general, Kd refers to the equilibrium constant for the complex coming apart. As usually defined, the koff is the rate constant with which the complex falls apart. What is called kon is a measure of how fast the partners come together.
